The labels stand for the following.
B2: TOFU-6 eTUDOR domain (residues 119-314) (domain or fragment, C. elegans, UniProt Q09293 119-314, looked up)
chain: VLLSSSWLPLNKDIEVEVVDYLPSSSVAPDLFALTLLRINDSSMKEKYDSMHEKMNAYAQIVPFDSELEIGYDGVFRDAPRSVRRVRRISATKLYLVDFGKIINYEKAKCFQLPKVFQSMPTRVSLCGLDGLTWSPVAIPSFDNIREVVKKWGQMENSTLHAMACGFQGSINMINLFCGKSILADRLQRKGVCEYL
notes: TOFU-6, C. elegans, eTUDOR domain, residues 119-314; also called extended TUDOR domain of TOFU-6

Conditions in all cases: both partners purified
One assay addresses T1, MBP-TOFU-6^eTUDOR domain (C. elegans, UniProt Q09293 119-314).
T1 construct: TOFU-6, C. elegans, eTUDOR domain (residues 119-314 as stated for TOFU-6^eTUDOR); source: purified recombinant
T1 sequence (looked up): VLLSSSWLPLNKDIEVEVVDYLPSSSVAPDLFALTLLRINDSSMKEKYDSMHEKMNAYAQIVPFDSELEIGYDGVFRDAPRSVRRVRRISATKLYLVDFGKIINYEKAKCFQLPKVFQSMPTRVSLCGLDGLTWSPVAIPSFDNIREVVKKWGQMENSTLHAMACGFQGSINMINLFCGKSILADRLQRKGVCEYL
Description: pull-down; purified MBP-TOFU-6^eTUDOR constructs as bait (MBP pull-down) and GST-tagged TOFU-1 constructs as bait (GST pull-down); 20 mM Tris/HCl pH 7.5, 150 mM NaCl, 10% glycerol, 0.05% NP40, 1 mM DTT; SDS-PAGE with Coomassie staining.

The target of another assay is T2, MBP-tagged TOFU-1^82-373 (C. elegans, UniProt O17608 82-373).
T2 construct: TOFU-1 (SLFL-1), C. elegans, residues 82-373; source: E. coli BL21(DE3) derivative, purified; not shown: MBP, N-terminal, kept
T2 sequence (looked up): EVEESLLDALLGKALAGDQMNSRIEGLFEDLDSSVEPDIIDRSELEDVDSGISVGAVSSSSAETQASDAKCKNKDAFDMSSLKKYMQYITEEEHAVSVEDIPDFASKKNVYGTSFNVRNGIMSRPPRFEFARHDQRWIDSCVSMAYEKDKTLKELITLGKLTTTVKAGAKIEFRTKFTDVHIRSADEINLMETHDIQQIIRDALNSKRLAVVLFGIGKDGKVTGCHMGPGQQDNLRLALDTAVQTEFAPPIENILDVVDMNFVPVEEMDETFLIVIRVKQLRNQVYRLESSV
Description: pull-down; purified MBP-tagged TOFU-1 as bait on amylose beads, incubated with excess prey; 20 mM Tris/HCl pH 7.5, 150 mM NaCl, 10% glycerol, 0.05% NP40, 1 mM DTT; SDS-PAGE with Coomassie staining.

The target in assay [1] is B2. Description: SEC; purified proteins alone or mixed at 20-40 uM, 1 h on ice; Superdex 200 Increase 3.2/300 in 20 mM Tris/HCl pH 7.5, 150 mM NaCl, 2 mM DTT; elution volumes compared, peak fractions on SDS-PAGE.
The target of another assay is T3, TOFU-6^eTUDOR V266E (C. elegans, UniProt Q09293 119-314, V266E).
T3 construct: TOFU-6, C. elegans, eTUDOR domain (residues 119-314 as stated for TOFU-6^eTUDOR) with V266E; source: purified recombinant
T3 sequence (looked up): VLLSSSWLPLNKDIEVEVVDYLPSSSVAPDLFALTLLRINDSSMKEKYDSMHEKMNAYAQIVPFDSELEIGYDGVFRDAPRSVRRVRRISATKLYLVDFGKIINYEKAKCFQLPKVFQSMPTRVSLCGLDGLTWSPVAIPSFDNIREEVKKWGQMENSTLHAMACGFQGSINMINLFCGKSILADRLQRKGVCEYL
Described as above.

The target in assay [2] is B2. Description: ITC; TOFU-6^eTUDOR (injectant, 400-450 uM) titrated into TOFU-1^W-82-113 (cell, 45-48 uM); 25 C; 20 mM Tris, 250 mM NaCl, 0.5 mM TCEP, pH 7.50; mean of three experiments.

B1: GST-tagged TOFU-1^82-113 (peptide, UniProt O17608 82-113, looked up)
chain: EVEESLLDALLGKALAGDQMNSRIEGLFEDLD
notes: also called TOFU-1^pep; source: purified recombinant; not shown: GST, N-terminal, kept
For the molecule B1, in the assay with MBP-TOFU-6^eTUDOR domain, the binding result is “binds”.

As to B2, the binding result with MBP-tagged TOFU-1^82-373 is recorded as “binds”.

B3: TOFU-1^82-172 L88R/L92R (domain or fragment, C. elegans, UniProt O17608 82-172, looked up)
chain: EVEESLRDALRGKALAGDQMNSRIEGLFEDLDSSVEPDIIDRSELEDVDSGISVGAVSSSSAETQASDAKCKNKDAFDMSSLKKYMQYITE
notes: source: purified recombinant
On to B3, for which the binding result in assay [1] was “binds”.

B4: TOFU-1^pep (residues 82-113) (peptide, UniProt O17608 82-113, looked up)
chain: EVEESLLDALLGKALAGDQMNSRIEGLFEDLD
notes: also called first helix of the N-terminal part of TOFU-1; source: E. coli BL21(DE3) derivative, purified
Turning to B4, in assay [1], the binding result is listed as “binds”.

B5: TOFU-1^82-172 (domain or fragment, C. elegans, UniProt O17608 82-172, looked up)
chain: EVEESLLDALLGKALAGDQMNSRIEGLFEDLDSSVEPDIIDRSELEDVDSGISVGAVSSSSAETQASDAKCKNKDAFDMSSLKKYMQYITE
notes: also called TOFU-1^N; source: E. coli BL21(DE3) derivative, purified
For B5, the binding result (in assay [1]; in the assay with TOFU-6^eTUDOR V266E) was “binds” in each case.

B6: TOFU-1^W-82-113 (peptide)
chain: WEVEESLLDALLGKALAGDQMNSRIEGLFEDLD
notes: tryptophan residue added at the N terminus so that the concentration can be determined; Used for ITC and crystallization; also called TOFU-1^pep; TOFU-1 peptide; source: purified (engineered TOFU-1 peptide)
In turn, B6 showed a Kd in assay [2] of around 20 µM.

The values above are taken from PMC10567574, “piRNA processing by a trimeric Schlafen-domain nuclease” (Nature, 2023).
